Assay [1] has as its target Ldb16 (1-133 ΔH)-FLAG, genomically expressed (S. cerevisiae) (UniProt P25587). The assay is described as follows: co-IP.
Assay [2] concerns the target Ldb16 (1-133 6A)-FLAG, genomically expressed (S. cerevisiae) (UniProt P25587). The assay is described as follows: co-IP.

B1: Ldo45-HA, endogenously tagged (natural protein)
chain: MAARNRRKNNKKKSLLVTSAAQEKNATYVLVAEELHKKTIDLNMGTETPLTENHENPIPAKEFKHQQKLEPIDEHDDGEDELSIKFKSMTKSSGPITEAEVQKLLLSYAFTSAAIQEDENEKESRHYPIKPPSPSASSLSAYFQSFVEKCKQVFYNFSLQTVEKLNALQNSLYEVFWIIFIYLNYWFPNVGDYVSNTFGQQDSIIIRISLSKSHFRALREKSSQKVQQAVKNIYFCFQEKPYLTAFKVSFAIGLVIPCSLLFLIMVSTATFFFFVYLTLFVVIGFFSSLFIIPLLGISFVFAIGVVSFGFCSNMSFKMAQLIYVRADAFLKKVLDKMALQTQPAQLQEPQEPLSTLRPVSNPTIPSPLRQTARPSKFVTEEDVIFEPVSAQSAIARSLETTANKAGNKFQLS
Take B1: the Ldo co-immunoprecipitation compared to Ldb16 1-133 (% lower than 1-133) in assay [1] and in assay [2] was 50 throughout.

B2: Ldo16-HA, endogenously tagged (natural protein)
chain: MVSTATFFFFVYLTLFVVIGFFSSLFIIPLLGISFVFAIGVVSFGFCSNMSFKMAQLIYVRADAFLKKVLDKMALQTQPAQLQEPQEPLSTLRPVSNPTIPSPLRQTARPSKFVTEEDVIFEPVSAQSAIARSLETTANKAGNKFQLS
For the molecule B2, the Ldo co-immunoprecipitation compared to Ldb16 1-133 (% lower than 1-133) in assay [1] and in assay [2] was 50 throughout.

Values taken from paper doi:10.1101/2025.03.14.642698.
